Numbered stars: 1 amine (or outer) side, 2 acyl side, 3 side chain; on linkers, the order of the positions; unused ones are H or OH. Bridge positions count the residues as written; N and C are the ends. * marks the point of attachment. C20 diacid = O=C(O)CCCCCCCCCCCCCCCCCCC(=O)*; γGlu = O=C(O)[C@H](CCC(=O)[*:2])N[*:1]
T1: rat calcitonin receptor (rat, UniProt P32214 25-516)
T1 construct: whole, on cells; Cell membranes of transiently transfected BHK tk'ts 13 cells (Assay VIII); also called rCTR; rCT
T1 sequence (looked up): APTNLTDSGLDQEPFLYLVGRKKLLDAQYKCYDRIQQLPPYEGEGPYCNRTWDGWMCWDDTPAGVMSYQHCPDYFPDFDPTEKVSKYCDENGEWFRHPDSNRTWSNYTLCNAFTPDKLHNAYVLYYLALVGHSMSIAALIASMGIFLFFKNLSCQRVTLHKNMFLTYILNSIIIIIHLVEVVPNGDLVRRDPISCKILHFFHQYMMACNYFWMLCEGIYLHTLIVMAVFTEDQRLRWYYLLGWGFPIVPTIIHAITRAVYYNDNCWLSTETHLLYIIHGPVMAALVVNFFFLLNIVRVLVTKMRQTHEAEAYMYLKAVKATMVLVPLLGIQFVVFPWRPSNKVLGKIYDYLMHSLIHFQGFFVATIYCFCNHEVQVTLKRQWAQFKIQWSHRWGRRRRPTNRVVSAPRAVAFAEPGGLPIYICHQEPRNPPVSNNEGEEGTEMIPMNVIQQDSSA

T2: human calcitonin receptor (human, UniProt P30988 25-474)
T2 construct: whole, on cells; Cell membranes of a stably transfected BHK cell line (Assay VII); also called hCTR; hCT
T2 sequence (looked up): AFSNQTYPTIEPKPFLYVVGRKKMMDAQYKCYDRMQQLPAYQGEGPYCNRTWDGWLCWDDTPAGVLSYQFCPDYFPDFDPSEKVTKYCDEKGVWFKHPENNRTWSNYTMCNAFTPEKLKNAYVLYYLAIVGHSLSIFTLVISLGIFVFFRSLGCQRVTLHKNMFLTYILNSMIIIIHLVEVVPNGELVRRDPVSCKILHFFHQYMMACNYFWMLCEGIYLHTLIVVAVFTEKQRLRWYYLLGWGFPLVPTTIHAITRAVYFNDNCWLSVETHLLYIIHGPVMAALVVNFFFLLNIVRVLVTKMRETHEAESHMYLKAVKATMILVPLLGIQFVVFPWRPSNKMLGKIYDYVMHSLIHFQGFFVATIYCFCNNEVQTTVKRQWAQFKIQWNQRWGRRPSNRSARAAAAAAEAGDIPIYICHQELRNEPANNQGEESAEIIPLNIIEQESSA

T3: rat amylin receptor (rat calcitonin receptor + rat RAMP 3) (rat, UniProt P32214 25-516; Q9JJ73 23-147)
T3 construct: whole, on cells; Cell membranes of transiently transfected BHK tk'ts 13 cells (Assay VI); also called rAmylin-R; rat amylin 3(a) receptor
T3 sequence (looked up) 1: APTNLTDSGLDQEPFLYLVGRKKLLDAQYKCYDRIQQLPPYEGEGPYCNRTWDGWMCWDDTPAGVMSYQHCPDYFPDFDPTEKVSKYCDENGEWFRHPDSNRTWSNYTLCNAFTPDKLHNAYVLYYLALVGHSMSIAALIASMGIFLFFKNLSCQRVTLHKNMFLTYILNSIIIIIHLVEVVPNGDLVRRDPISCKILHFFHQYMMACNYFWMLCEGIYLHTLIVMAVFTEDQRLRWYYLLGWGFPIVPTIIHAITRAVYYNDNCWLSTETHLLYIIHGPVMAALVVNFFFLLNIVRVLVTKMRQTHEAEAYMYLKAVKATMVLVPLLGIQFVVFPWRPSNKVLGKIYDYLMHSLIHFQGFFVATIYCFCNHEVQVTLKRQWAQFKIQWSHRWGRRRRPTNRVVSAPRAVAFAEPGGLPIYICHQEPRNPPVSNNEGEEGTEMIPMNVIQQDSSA
T3 sequence (looked up) 2: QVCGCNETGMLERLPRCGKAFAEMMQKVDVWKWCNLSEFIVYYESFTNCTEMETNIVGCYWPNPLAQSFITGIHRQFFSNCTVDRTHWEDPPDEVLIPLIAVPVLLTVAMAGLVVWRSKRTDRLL


What was measured:
rat calcitonin receptor [1] = target: T1, rat calcitonin receptor; assay: ratio IC50 rat calcitonin receptor / IC50 rat amylin receptor
rat calcitonin receptor [2] = target: T1, rat calcitonin receptor; assay: SPA competition vs 125I-calcitonin, membranes with rat CTR (Assay VIII)
[3] = target: T2, human calcitonin receptor; assay: ratio IC50 human calcitonin receptor / IC50 human amylin receptor
Procedure: The resulting pellet was resuspended, homogenized and centrifuged (20.000 rpm, 15 min) in a buffer containing 20 mM Na-HEPES and 0.1 mM EDTA (pH 7.4, buffer 2). The resulting pellet was resuspended in buffer 2 and protein concentration was measured (BCA protein Assay, Pierce). The homogenate was kept cold during the whole procedure. The membranes were kept at −80° C. until use. The assay was performed in a 384 well Optiplate (PerkinElmer) in a total volume of 40 ul. Membranes were mixed with SPA beads. Final concentration of membranes 35 ng/μL final and SPA beads was 0.05 mg/well. Test-compounds were dissolved in DMSO and further diluted in assay buffer (50 mM Hepes, pH 7.4, 1 mM CaCl2, 5 mM MgCl₂, 0.1% OA and 0.02% Tween20). […] The final mixture was incubated with shaking at 400 rpm for 120 min at 25° C. prior to centrifugation (1500 rpm, 10 min). Samples were analyzed on TopCounter™ (Packard). The IC₅₀ was calculated using (one site binding competition analysis) GraphPad Prism5 as a measure of receptor affinity.
Membranes were prepared in the following way; the cells were rinsed with PBS and incubated with Versene for approximately 5 min before harvesting. The cells were flushed with PBS and the cell-suspension was centrifuged for 5 min at 1000 rpm. Cells were homogenized (Ultrathurrax) in a buffer containing 20 mM Na-HEPES and 10 mM EDTA (pH 7.4) and centrifuged at 20.000 rpm for 15 min. The resulting pellet was resuspended, homogenized and centrifuged (20.000 rpm, 15 min) in a buffer containing 20 mM Na-HEPES and 0.1 mM EDTA (pH 7.4, buffer 2). The resulting pellet was resuspended in buffer 2 and protein concentration was measured (BCA protein Assay, Pierce). The homogenate was kept cold during the whole procedure. The membranes were kept at −80° C. until use. Assay was performed in a 384 well Optiplate (PerkinElmer) in a total volume of 40 ul. Membranes were mixed with SPA beads.

[4] = target: T3, rat amylin receptor (rat calcitonin …); assay: SPA competition vs 125I-rat amylin, membranes with rat CTR + rat RAMP3 (Assay VI)

Ratio rCT/rAmylin binding (rat calcitonin receptor [1])	IC50 (rat calcitonin receptor [2]) [nM]	Ratio hCT/hAmylin binding [3]	IC50 [4] [nM]	Binder
36.1	114	23.6	3.14	{C20 diacid-γGlu}-KCNTATCATQRLAHFLRHSSPNFGAIPSSTNVGSETY-NH2 (disulfide 2-7; SMILES CC[C@H](C)[C@H](NC(=O)[C@H](C)NC(=O)CNC(=O)[C@H](Cc1ccccc1)NC(=O)[C@H](CC(N)=O)NC(=O)[C@@H]1CCCN1C(=O)[C@H](CO)NC(=O)[C@H](CO)NC(=O)[C@H](Cc1c[nH]cn1)NC(=O)[C@H](CCCNC(=N)N)NC(=O)[C@H](CC(C)C)NC(=O)[C@H](Cc1ccccc1)NC(=O)[C@H](Cc1c[nH]cn1)NC(=O)[C@H](C)NC(=O)[C@H](CC(C)C)NC(=O)[C@H](CCCNC(=N)N)NC(=O)[C@H](CCC(N)=O)NC(=O)[C@@H](NC(=O)[C@H](C)NC(=O)[C@@H]1CSSC[C@H](NC(=O)[C@H](CCCCN)NC(=O)CC[C@H](NC(=O)CCCCCCCCCCCCCCCCCCC(=O)O)C(=O)O)C(=O)N[C@@H](CC(N)=O)C(=O)N[C@@H]([C@@H](C)O)C(=O)N[C@@H](C)C(=O)N[C@@H]([C@@H](C)O)C(=O)N1)[C@@H](C)O)C(=O)N1CCC[C@H]1C(=O)N[C@@H](CO)C(=O)N[C@@H](CO)C(=O)N[C@H](C(=O)N[C@@H](CC(N)=O)C(=O)N[C@H](C(=O)NCC(=O)N[C@@H](CO)C(=O)N[C@@H](CCC(=O)O)C(=O)N[C@H](C(=O)N[C@@H](Cc1ccc(O)cc1)C(N)=O)[C@@H](C)O)C(C)C)[C@@H](C)O, Acylated analogue of human amylin; also called compound 30)
28.5	62.5	12.3	2.19	{C20 diacid-γGlu}-KCNTATCATQRLAEFLRHSSPNFGAIPSSTNVGSETY-NH2 (disulfide 2-7; SMILES CC[C@H](C)[C@H](NC(=O)[C@H](C)NC(=O)CNC(=O)[C@H](Cc1ccccc1)NC(=O)[C@H](CC(N)=O)NC(=O)[C@@H]1CCCN1C(=O)[C@H](CO)NC(=O)[C@H](CO)NC(=O)[C@H](Cc1c[nH]cn1)NC(=O)[C@H](CCCNC(=N)N)NC(=O)[C@H](CC(C)C)NC(=O)[C@H](Cc1ccccc1)NC(=O)[C@H](CCC(=O)O)NC(=O)[C@H](C)NC(=O)[C@H](CC(C)C)NC(=O)[C@H](CCCNC(=N)N)NC(=O)[C@H](CCC(N)=O)NC(=O)[C@@H](NC(=O)[C@H](C)NC(=O)[C@@H]1CSSC[C@H](NC(=O)[C@H](CCCCN)NC(=O)CC[C@H](NC(=O)CCCCCCCCCCCCCCCCCCC(=O)O)C(=O)O)C(=O)N[C@@H](CC(N)=O)C(=O)N[C@@H]([C@@H](C)O)C(=O)N[C@@H](C)C(=O)N[C@@H]([C@@H](C)O)C(=O)N1)[C@@H](C)O)C(=O)N1CCC[C@H]1C(=O)N[C@@H](CO)C(=O)N[C@@H](CO)C(=O)N[C@H](C(=O)N[C@@H](CC(N)=O)C(=O)N[C@H](C(=O)NCC(=O)N[C@@H](CO)C(=O)N[C@@H](CCC(=O)O)C(=O)N[C@H](C(=O)N[C@@H](Cc1ccc(O)cc1)C(N)=O)[C@@H](C)O)C(C)C)[C@@H](C)O, Acylated analogue of human amylin; also called compound 22)

Source: patent US20140087995A1 (published 2014)
